The DeepSol protein solubility set

Assay: soluble on expression in E. coli; label from the status in PepcDB or PDB records

Row | Sequence | soluble on expression in E. coli
1 | MSLSPEDLEATGARLVEELVEYRTRTQVSTAVIGMSGGVDSALTAALFKAAGWHVMGHTLPIEQDPTETDRGIEACAALGIEHRPLDLSGAYEAALAQLGELDPDLLSSDETPARTRRGNLRARLRMMTLYDQAHRLGGLVAGTDNFSELTAGFWTLHGDVGDLAPVQSLLKSWEVPWLARAYRVPEATWRAMPTDGLGIGGGDEAQIGATYLEWDILQFALAEALGDDPGLATRHLAFALRMDADRHAQEVLGTLIARMRATWHKRLNEGHHHHHH | not soluble
2 | MSLSQIVAEVDGYKVTKEELDTLFHVFWKRITHLSSAKPTQEDKRIFLIDYVADLLILKEAKKMGIEVSEKEINDFIRKYVGRKIKEKSVINAVKAEILVEKLVDKLMKEQELNPSEDILRAYYEFYKREFYRPSSVKLLGIYVKSKKEAERISQILKQGEVPSTEDVKVSKPLWYSIPTLPKYIRRNFRTLSVGEVSKPIKINDGYLVFKILDKKEGHHHHHH | soluble
3 | MSLSRAFLVAAPSSGSGKTTITLGLLRLFARRGMAVQPFKCGPDYLDTMLHAMAASTGETARPGLNLDTFMASKEHVRSLFARNAASADISVIEGVMGLFDGAEKSDGSSAEIAALLGLPVIMVIDGSKIAYSAAPILYGFKHFDPSVKVAGVIFNRVGSASHYSHLEAAAKDVGVEPLGYLPRNSDITISERHLGLNTSAEYDREKLIDAMAEHIEKTVNIERLLDVARIELPEIEQAQPVTKKLDKVIAVARDEAFNFIYHDNLETLKRYGEVRFFSPLHDRELPKADLVYLAGGYPELHAEALAANKTMRKAIAEWCRNRGATWAECGGLMYLGKTLTLADGAAHPMCGVLDLDTTMQEARLTLGYRKVYPAGADGVELRGHEFHYSRIWRQGEIDTIAEIRNARGQQVGTKLFRVGNTIASYLHLYWGEHDYLANWFDVLREGHHHHHH | soluble
4 | MSLSRLPVIVGFGGYNAAGRSSFHHGFRRMVIESMDPQARQETLAGLAVMMKLVKAEGGRYLAEDGTPLSPEDIERRYAERIFASTLVRRIEPQYLDPDAVHWHKVLEATPAEGQALTFKASPKQLPEPLPGNWSVTPAADGEVLVSIHERCEFKVDSYRPLTVKSAGQLPTGFEPGELYNSRFHPRGLQMSVVAATDAIRSTGIDWQTIVDNVQPDEIAVFSGSIMSQLDDNGFGGLMQSRLKGHRVSAKQLPLGFNSMPTDFINAYVLGSVGMTGSITGACATFLYNLQKGIDVITSGQARVVIVGNSEAPILPECIEGYSAMGALATEEGLRLIEGRDEVDFRRASRPFGENCGFTLAESSQYVVLMDDELALRLGADIHGAVTDVFINADGFKKSISAPGPGNYLTVAKAVASAVQIVGLDTVRHASFVHAHGSSTPANRVTESEILDRVASAFGIDGWPVTAVKAYVGHSLATASADQLISALGTFKYGILPGIKTIDKVADDVHQQRLSISNRDVRQDKPLEVCFINSKGFGGNNASGVVLSPRIAEKMLRRRHGEAAFAAYVEKREQTRGAARAYDQRALQGDLEIIYNFGQDLIDEQAIEVSAEQVTVPGFSQPLVYKKDARFSDMLDEGHHHHHH | soluble
5 | MSLSRPQFDPSAYAAQLEDKKSRLAGLLAPFAAPAPEVFESPREHYRLRAEFRLWRETGNEKRHYAMFEQGDKHTPILLEDFPIASRRINELMPRLKAAWADPALGFKLFQVEFLTTLAGDALITLCYHRPIDDAWRQAAEKLAAELGVNLVGRSRGKRIVVGRDYVEEELSVAGRRFRYRQPEGAFTQPNGEVNQKMLGWAYEALGQRDDDLLELYCGNGNFTLPLATRVRKVLATEISKSSVNAALANLADNAVDNVSLVRLSAEELTQALNEVRPFRRLADIDLKSYAFGSVFVDPPRAGMDPDTCELARRFERILYISCNPETLAQNIAQLHDTHRISRCALFDQFPYTHHMESGVLLEEGHHHHHH | soluble
6 | MSLSRVTEIRYVGYGVKDFDAEKAFYADVWGLEPVGEDANNAWFKAQGADEHHVVQLRRADENRIDVIALAADSRSDVDALRASVEAAGCKVASEPAVLATPGGGYGFRFFSPDGLLFEVSSDVAKGAKRDLARWEGVPVKISHIVLHSPNHQDMVKFFTDVLGFKVSDWLGDFMCFLRCNSAHHRIAILPGPPCLNHVAYDMLSVDDMMRGAHRLKVKGIDIGWGPGRHTAGNNTFSYFVTPGGFVTEYTSELEEVDFDTHQYKVHVPAPMVMDQWGIGTGGPQTLPHPHANPGLFQTAEAEGHHHHHH | soluble
7 | MSLSSDRLIYLPLGGAGEIGMNAYVYGYGKPGKERLILVDLGVTFPDMDTTPGVDLIMPDIAWLAKNRDRLEAVFITHAHEDHVGAVAHLYDRLGAPVYARAFTANIARRKMGEHGHPDEAVTTVSAWPEMTEAGPFQVGFVPLSHSIPESSGLVIDTPAGRIVHSGDFKLDENPIVGEAFDRKLWEEVAKPGVKVFACDSTNVMSRHPGRSESSVGGEIEKLVGTAEGVFVATTFASNVARVLTLAEAGQRAGRSVCLLGRAMRRMIEAAIETGVLADFPRTVSPEDARNIPRENLMLIVTGSQGERRAASAQLANGKYQGIELKEGDMFLFSSKTIPGNERGVLRIVNQLSEKGVDVIDDSSGLYHVSGHANRPDLETMHEILQPEILVPMHGEHRHLREHVKLADKRGIKGILAVNGMMIDLTGEGHHHHHH | soluble
8 | MSLSSNRGVVYIGPGKVEVQDIADPKLEAPDRRKIAHGVILKVVSTNICGSDQHMVRGRTTAEPGLILGHEITGEVIEKGADVEMLEIGDIVSVPFNVACGRCRCCREGDTGVCLTVNPSRAGGAYGYVDMGGWIGGQARYVMVPYADFNLLKFPDRDRAMAKIRDLTMLSDILPTGFHGAWKAGVGVGSVVYVAGAGPVGLAAAASARILGAAVVMVGDFNKERLEHARKVGFEPVDLSKGDDLPEMIAQITGTPEVDAAIDAVGFEARGHSGGEQPAIVLNQMMQITRAAGQIGIPGLYVTEDPGAVDDAARHGSLSMRFGLGWAKAQSFHTGQTPVLKYNRQLMQAILHDRLPIADIVNATVIPLDQAVQGYESFDRGVAKKFVLDPHGMLAAEGHHHHHH | not soluble
9 | MSLSVPRSGLSVQMAQPARPLRADAARNRARILGVAYEAFATEGLSVPIDEIARRAGVGAGTVYRHFPTKEALCAAVIGDRMPHLVDDGYVLLKSAGPGEALFTYLRSLVLHWGATDRGLVDALAGAGGIDILGVAPDAEDAFLTILSDLLYAAQYAGTARTDVGVREVKSILVGCQAMEAYNSALAERVTDVVVDGLRAAREGHHHHHH | soluble
10 | MSLSWEYEYYPHSLFCHHKEREGMHYIEGAYWSAEPDLPYLHKRKILMLVEDVWLLVDDIRCQGQHEALTQFILDKDVTYQDGKINQLRLWSEVDFDLEDTIISPKYNELERSSKLTKRQFFENQMLDYTIIAHESFEIIRHSVYQTDDREVENALAFEVKNDETDKLILLLSEDIRVGEKLCLVDGTKMRGKCLVYDKINERMIRLQCEGHHHHHH | soluble
11 | MSLSYKKIAIITGANSGFGKEFLKLLINEEEITEIWAVARNKARLNQLVDEFGSKVKIFSKDLSKIEEVKEIGTFLSKENVCIKYLINNAGFAKFCSYNDLSIDESINMIDLNISAVVALGLICIPYMQKGSHIMNISSQASFQPLPYQNIYSSTKAFIRNYTRALNVELKSKGINAIAVCPGWMSTNLFKRGIVVAEKGTKNFPGIVSPDVVAKKALKDAKKNKDISVYGINTKSSHLLAKLLPQKMMMKVWLMQQHIKEGHHHHHH | soluble
12 | MSLTADPPACTVPAAGVSSTHKLVNGGAEKIVFKIKSSNNNEYRIAPVFGFVDPSGSKDVVITRTAGAPKEDKLVVHFASAPADATDAQAAFVAVAPAGTVTIPMSATA | soluble
13 | MSLTAHGLCEFIDASPSPFHVCATVAGRLLGAGYRELREADRWPDKPGRYFTVRAGSLVAWNAEQSGHTQVPFRIVGAHTDSPNLRVKQHPDRLVAGWHVVALQPYGGVWLHSWLDRDLGISGRLSVRDGTGVSHRLVLIDDPILRVPQLAIHLAEDRKSLTLDPQRHINAVWGVGERVESFVGYVAQRAGVAAADVLAADLMTHDLTPSALIGASVNGTASLLSAPRLDNQASCYAGMEALLAVDVDSASSGFVPVLAIFDHEEVGSASGHGAQSDLLSSVLERIVLAAGGTREDFLRRLTTSMLASADMAHATHPNYPDRHEPSHPIEVNAGPVLKVHPNLRYATDGRTAAAFALACQRAGVPMQRYEHRADLPCGSTIGPLAAARTGIPTVDVGAAQLAMHSARELMGAHDVAAYSAALQAFLSAELSEAEGHHHHHH | not soluble
14 | MSLTASDQFNSTHSAVDQYAELVLHNGRMYTLDPAQPWADAVAIRQGKLIAVGSLASLASLIGPNTRQHDLDGAFCMPGLHDMHTHPDLALAPRYADDLDVGIEDPTPEQLAAAIHAYADSHPGDGWIYGQYWVRYTFREAGLTPGREWLDSVMPHRPVALLDRMWGTMMVNSKALELAGIDRHTSDPRNGYLERDELTGEPNGLLIDGAYALIHAAMPPTPVSVLRRAYRDGVHFQTSRGVTATKYVHVCENRLQALKELDDAGELTLRVEAAISWQDDIFPVRRRWELLSGERHFYRSARLSANAVKFHFDGTVEPKSSYLLTPWPEESSWRGKLNLTPEHITDMVVDMDKRGLRVIAHCTGDGASDVFLDAVAEARRRNGNSGIRHQCAHSTLLHPGNLKRFQALDVIAEFSPAAWYPTPFASGARSGYGQERLKRIYDFKGVLAAGGIAVFGTDWPVASIDPWLALETMVTRQNPWNQEPDTFGDPISLEQALQVATLNGAHAMGLEHLTGSLEAGKSADLIVLDRDLFAQGARNYIHHTQVQLTFVEGQLVYDRQGTEGHHHHHH | not soluble
15 | MSLTASSSEEKADKSQELVIYSNSVSNGRGDWLTAKAKEAGFNIKMVDIAGAQLADRVIAEKNNAVADMVFGIGAVDSNKIRDQKLLVQYKPKWLDKIDQSLSDKDNYYNPVIVQPLVLIGAPDVKEMPKDWTELGSKYKGKYSIYGLQGGTGRAILASILVRYLDEKGDLGVSEKGWEVAKEYFANAYTLQKGESSVVKALDKESPIQYGMIWGSGALIGQKEQNVEFKVMTPEIGVPFVTEQTMVLSTSKKQALAKEFIDWFGQSEIQVEYSKKFGSIPANKDALKELPEDTKKFVDQVKPQNIDWEAVGKHLDEWVEKAELEYVKEGHHHHHH | soluble
16 | MSLTDKMQSLALAPVGNLDSYIRAANAWPMLSADEERALAEKLHYHGDLEAAKTLILSHLRFVVHIARNYAGYGLPQADLIQEGNIGLMKAVRRFNPEVGVRLVSFAVHWIKAEIHEYVLRNWRIVKVATTKAQRKLFFNLRKTKQRLGWFNQDEVEMVARELGVTSKDVREMESRMAAQDMTFDLSSDDDSDSQPMAPVLYLQDKSSNFADGIEDDNWEEQAANRLTDAMHGLDERSQDIIRARWLDEDNKSTLQELADRYGVSAERVRQLEKNAMKKLRAAIEAEGHHHHHH | soluble
17 | MSLTEKTDQTLMLIDGHSMAFRAFFALPAENFSTSGGQATNAVYGFLSMLSTLLKDEQPTHVAVAFDVGRKTFRTDMFPAYKAQREATPPEFKGQVEILKEVLSTLGITTIEKIDFEADDVIATLSVAAKPLGFKTLIVTGDRDSFQLVNDTTTVLYPMKGVSVLHRFTPEAVEEKYGLTPRQYPEFAALRGDPSDNLPNIPGVGEKTATKWIAQYETLDNLLDHADEIKGKVGASLRERIEQVRMNRKLTEMVKDLELPLGPDDFEMKPVQVAEVAAKFDDLEFGTNLRERVLAVVKAEGSAAPVEEVEAEQVVVDTQSLAQWLPARAGQALALALAGVAKPAAGDTYALAIADTKRHAVLVDVADISAEDEKALATWLASEDPKMLHGAKAAYHMLAGRGFELHGVVHDTAIAAYLLRPGQRTYELADVYQRHLQRQLSTNDNGGQLTLLDAADDQSLVDDVIAILELSEELTKQLQEIQAFELYHDLEIPLSGILARMEAIGEGHHHHHH | soluble
